From patent US20220017630A1 (JIANGSU SIMCERE PHARMACEUTICAL, published 2022)

Assays:
[1] = molecular target: T1, human TNFR2 (Novoprotein, Catalog No. C830) (human, UniProt P20333 23-257, limits assumed); experiment: blocking ELISA, TNFα-biotin on coated human TNFR2; 002# OD / antibody OD x 100
T1 construct: construct not described; also called TNFR2 protein
T1 sequence (looked up): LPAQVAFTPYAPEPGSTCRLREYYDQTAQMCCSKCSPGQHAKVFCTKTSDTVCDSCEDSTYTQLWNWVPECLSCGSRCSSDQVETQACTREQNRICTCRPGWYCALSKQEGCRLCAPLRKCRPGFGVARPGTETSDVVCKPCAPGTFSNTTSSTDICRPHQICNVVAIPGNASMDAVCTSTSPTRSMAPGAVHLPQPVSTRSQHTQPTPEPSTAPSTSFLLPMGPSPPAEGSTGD
Experimental: (§1) A microplate was pre-coated with 100 μl/well of 1 μg/ml human TNFR2 (Novoprotein, Catalog No. C830). […] After washing the plate, a Streptavidin-HRP working solution (1:10000 dilution) was added at 100 μl/well, and incubated with shaking at room temperature for 40 min. The plate was washed again, the HRP substrate TMB was added for color development, the termination solution was added to terminate the reaction, and the microplate reader was used to read the absorption value.

mouse TNFR2 = molecular target: T2, mouse TNFR2 (mouse, UniProt P25119 23-258, limits assumed); experiment: ELISA
T2 sequence (looked up): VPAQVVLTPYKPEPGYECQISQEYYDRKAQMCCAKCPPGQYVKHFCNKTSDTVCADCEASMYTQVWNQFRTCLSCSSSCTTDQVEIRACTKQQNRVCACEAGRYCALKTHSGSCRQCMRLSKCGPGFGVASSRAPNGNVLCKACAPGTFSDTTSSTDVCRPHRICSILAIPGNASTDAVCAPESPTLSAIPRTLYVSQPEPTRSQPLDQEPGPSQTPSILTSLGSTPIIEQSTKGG

human CREG-His protein = molecular target: T3, human CREG-His protein (human, UniProt O75629 32-220, limits assumed); experiment: ELISA
T3 construct: Control antigen in ELISA; also called control human CREG-His
T3 sequence (looked up): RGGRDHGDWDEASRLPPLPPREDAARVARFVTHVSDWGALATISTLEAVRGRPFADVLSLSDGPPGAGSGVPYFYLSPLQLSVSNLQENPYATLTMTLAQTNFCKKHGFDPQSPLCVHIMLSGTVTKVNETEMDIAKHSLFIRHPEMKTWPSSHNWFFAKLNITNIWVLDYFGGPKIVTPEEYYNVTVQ

[2] = molecular target: T4, Human TNFR2 recombinant protein (Sino 10417-H08H) (human, UniProt P20333 23-257); experiment: ELISA, coated antigen 0.5 ug/ml, antibody 12 ng/ml
T4 construct: also called hTNFR2 (His tag)
T4 sequence (looked up): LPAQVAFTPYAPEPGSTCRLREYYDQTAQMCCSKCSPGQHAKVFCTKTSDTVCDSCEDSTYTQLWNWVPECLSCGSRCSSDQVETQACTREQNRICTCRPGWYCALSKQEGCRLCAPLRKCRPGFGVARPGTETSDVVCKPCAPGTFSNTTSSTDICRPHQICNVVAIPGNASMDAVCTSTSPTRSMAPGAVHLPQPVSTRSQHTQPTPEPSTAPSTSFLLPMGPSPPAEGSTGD

[3] = molecular target: T5, cynomolgus TNFR2 (Sino 90102-C08H) (cynomolgus, UniProt A0A2K5VET2 132-366); experiment: ELISA, coated antigen 0.5 ug/ml, antibody 12 ng/ml
T5 construct: also called CynoTNFR2 (His tag)
T5 sequence: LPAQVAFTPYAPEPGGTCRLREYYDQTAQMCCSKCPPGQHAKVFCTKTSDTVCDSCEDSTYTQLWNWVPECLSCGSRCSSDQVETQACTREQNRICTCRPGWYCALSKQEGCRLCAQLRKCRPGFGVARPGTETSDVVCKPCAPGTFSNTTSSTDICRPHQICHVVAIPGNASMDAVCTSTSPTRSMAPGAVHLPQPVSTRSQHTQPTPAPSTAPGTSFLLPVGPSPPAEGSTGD

[4] = molecular target: T6, human TNFR2 on the cell surface (CHO-TNFR2 cells; human Treg cells) (human, UniProt P20333 23-461); experiment: flow cytometry, blocking of TNFα-biotin on CHO-TNFR2 cells
T6 construct: whole, on cells; The assay field of each row says which cells; also called TNFR2-CHO cell; TNFR2 on Treg cells
T6 sequence (looked up): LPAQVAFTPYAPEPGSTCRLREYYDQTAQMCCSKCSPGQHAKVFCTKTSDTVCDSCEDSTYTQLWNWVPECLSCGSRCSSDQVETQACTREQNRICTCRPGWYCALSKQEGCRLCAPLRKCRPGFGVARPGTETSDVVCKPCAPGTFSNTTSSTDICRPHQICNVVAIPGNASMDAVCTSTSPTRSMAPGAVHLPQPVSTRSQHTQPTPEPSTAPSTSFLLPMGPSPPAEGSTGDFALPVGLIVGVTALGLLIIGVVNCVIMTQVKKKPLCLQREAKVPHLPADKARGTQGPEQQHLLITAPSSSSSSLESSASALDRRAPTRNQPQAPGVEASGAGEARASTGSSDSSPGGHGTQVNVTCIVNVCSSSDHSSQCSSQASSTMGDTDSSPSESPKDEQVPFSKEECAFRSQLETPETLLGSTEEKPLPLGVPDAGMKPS

[5] = molecular target: T1, human TNFR2 (Novoprotein, Catalog No. …); experiment: blocking ELISA, TNFα-biotin on coated human TNFR2, antibody 2 nM
Experimental: as §1

B1: TNFR2 antibody #088 (antibody, V domains shown)
VH: EVQLQESGGGLVQPGGSLNLSCAASGFAFSTYDLSWVRQTPGKRLEWVAYINNGGISTYYSDTVKGRFTITRDNAKNTLYLQMSSLKSEDTAMYYCVRGPFYGSANYFDYWGQGTTVTVSS
VL: DILMTQSPASLSLFVGETVTITCRASENIYSNLAWYQQKQGKSPQLLVYDATKLAEGVPSRFSGSESGTQYSLKINSLQSEDFGTYYCQHFWVTPWTFGGGTKLEIK
% to 002# OD (2 nM) [1]: 69.3% | % to 002# OD (20 nM) [1]: 94.1% | binding result (mouse TNFR2): no binding (tested: 12 ng/mL) | binding result (human CREG-His protein): no binding (tested: 12 ng/mL) | ELISA OD [2]: 1.31 OD | ELISA OD [3]: 1.44 OD | Antibody AUC [4]: 24300 | ELISA OD of antibodies to be tested (2 nM) [5]: 2.34 OD

B2: TNFR2 antibody #309 (antibody, V domains shown)
VH: EVQLQESGAELVKPGASVKLSCKASGYTFTSYWIHWVKLRPGQGFEWIGEINPNNGGTDYNEKFKRKATLTVDKSSSTAYMELSSLTSEDSAIYYCTIDSMITTTWFAYWGQGTTVTVSS
VL: EIVMTQSQKLMSTVVGDRVSVTCKASQNVGTNVAWFQQKPGQSPKALINSASYRYSGVPDRFTGSGSGTDFTLTISSVQSEDLAEYFCQQYNSYPFTFGSGTKLEIK
% to 002# OD (2 nM) [1]: 75.9% | % to 002# OD (20 nM) [1]: 96.6% | binding result (mouse TNFR2): no binding (tested: 12 ng/mL) | binding result (human CREG-His protein): no binding (tested: 12 ng/mL) | ELISA OD [2]: 1.9 OD | ELISA OD [3]: 2.27 OD | Antibody AUC [4]: 27800 | ELISA OD of antibodies to be tested (2 nM) [5]: 2.14 OD
